{
  "source": "paper PMC5573662",
  "about": "(Bioorganic & medicinal chemistry, 2017)",
  "molecular_target": "full-length polo-like kinase 1 (Plk1) (UniProt P53350 1-603)",
  "sequence (P53350 whole entry)": "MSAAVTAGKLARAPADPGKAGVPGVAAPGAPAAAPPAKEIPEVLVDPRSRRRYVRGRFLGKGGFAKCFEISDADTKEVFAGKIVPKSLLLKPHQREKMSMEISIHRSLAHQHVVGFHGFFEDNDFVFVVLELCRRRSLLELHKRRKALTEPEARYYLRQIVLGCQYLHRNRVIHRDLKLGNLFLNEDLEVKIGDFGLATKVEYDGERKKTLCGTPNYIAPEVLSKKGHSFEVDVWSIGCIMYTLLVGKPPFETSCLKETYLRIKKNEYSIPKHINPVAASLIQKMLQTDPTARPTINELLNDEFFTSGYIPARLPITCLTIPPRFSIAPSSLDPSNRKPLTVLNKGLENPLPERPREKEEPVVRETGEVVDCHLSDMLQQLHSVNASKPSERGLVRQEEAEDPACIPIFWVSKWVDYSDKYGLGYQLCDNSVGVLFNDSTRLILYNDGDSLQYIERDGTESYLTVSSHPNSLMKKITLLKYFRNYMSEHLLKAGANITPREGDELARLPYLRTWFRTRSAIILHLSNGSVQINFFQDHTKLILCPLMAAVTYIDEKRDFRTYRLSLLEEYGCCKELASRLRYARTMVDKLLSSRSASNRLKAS",
  "test": "ELISA",
  "note": "Square brackets hold non-standard residues; d marks the D form. Ends that are not written are not given here. His(π-(CH2)8Ph) = N[C@@H](Cc1cncn1CCCCCCCCc1ccccc1)C(=O)O; pT = C[C@@H](OP(=O)(O)O)[C@H](N)C(=O)O",
  "data": [
    {"binder": "PL[His(π-(CH2)8Ph)]S[pT]", "note": "[PLH*SpT (2a)]", "values": [
      {"measurement": "IC50", "value": 181, "unit": "nM"}
    ]}
  ]
}
